Assay results reported in patent publication US20210324066A1.

Key:
[1] = target: LIGHT standard recombinant antigen (UniProt O43557); assay: Simoa sandwich immunoassay, Enzo ALX-804-841-C100 capture with ProSci RF16062 detection, free LIGHT in diluent; signal inhibited by DcR3 as competitor
[2] = target: LIGHT standard recombinant antigen (UniProt O43557); assay: Simoa sandwich immunoassay, Enzo ALX-804-841-C100 capture with ProSci RF16062 detection, free LIGHT in diluent; uninhibited signal in the inhibition formula
[3] = target: native free LIGHT (TNFSF14) in serum and plasma samples (UniProt O43557); assay: antibody competition: serum and plasma samples incubated with 50 µg/mL free capture antibody for 35 minutes before the Simoa free LIGHT assay; treated against untreated sample concentration

MFI [1]: 361 MFI | MFI [2]: 9940 MFI | % Recovery [3]: 0%
Substance: Enzo ALX-804-841-C100 (antibody)
